The target of the assay is mGCSF (R&D Systems Cat#414-CS) (mouse (printed as 'm')) (UniProt P09920). Put plainly: cell-based or functional assay.

The values below come from patent US20140234303A1.

Sequence of UniProt P09920 (P09920 31-208 limits assumed): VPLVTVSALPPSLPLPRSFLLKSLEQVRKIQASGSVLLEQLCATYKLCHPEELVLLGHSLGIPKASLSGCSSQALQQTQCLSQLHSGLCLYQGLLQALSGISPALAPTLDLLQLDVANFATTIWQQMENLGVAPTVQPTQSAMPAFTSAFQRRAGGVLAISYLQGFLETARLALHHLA

For the substance “soluble hG-CSFR-Fc protein (from UniProt Q99062 25-627) (Fc fusion)”, the inhibition of mG-CSF proliferation of hG-CSFR BaF3 cells (MTS reduction), IC50 is 0.022 nM.

The substance “Neutralizing anti-G-CSF (MAB414), R&D Systems (antibody)” came in with an inhibition of mG-CSF proliferation of hG-CSFR BaF3 cells (MTS reduction), IC50 of 0.01 nM.
